Assay results reported in patent publication US20170340747A1, “PROCESS FOR PRODUCING IRON (III) CASEIN N-ACETYL-ASPARTYLATED COMPLEXES AND USE THEREOF IN PHARMACEUTICAL COMPOSITIONS” (priority 2014, published 2017).

Tests used:
[1] = Solubility of the dried iron (III) casein N-acetyl-L-aspartylated complex; type: physicochemical
Procedure: (§1) The moist pure product obtained in the previous stage is dried under vacuum, at a temperature increasing from 60° C. to 70° C., for an overall period of 24 hours. After the desiccation process, 6.5 g of pure iron (III) casein N-acetyl-L-aspartylated complex are obtained, with a water content <5 wt % (Karl Fisher), having the following chemical and physicochemical characteristics:
as §1, with “6.6” for “6.5”, “casein:” for “casein”, “content<5” for “content <5”
as §1, with “6.4” for “6.5”, “content<5” for “content <5”, “characteristics: […]” for “characteristics:”

[2] = test system: patients with iron deficiency anaemia; details: cited from earlier work
dogs = details: complex containing 5% iron; cited from earlier work
rats = details: complex containing 5% iron; cited from earlier work

ferro-N-acetyl-L-aspartylated casein
Solubility at alkaline pH values [1]: completely soluble at alkaline pH values

iron (III) casein N-acetyl-L-aspartylated complex [Example 3]
Solubility [1]: Soluble in NaOH pH = 8

iron (III) casein: N-acetyl-L-aspartylated complex [Example 2]
Solubility [1]: Soluble in NaOH pH = 8

iron-acetyl-aspartylated casein [Fe-ASP]
Changes in clinical and haematological profiles ([2]; controlled clinical trials, compared with iron protein succinylate (IPS)): virtually identical to those seen with iron protein succinylate (IPS) | Safety ([2]; human, in vivo): No safety considerations were raised | Clinical and haematological parameters after treatment ([2]; open clinical trials, all categories of patients with iron deficiency anaemia): highly significant improvements

iron-protein succinylate [iron succinyl casein complex]
Gastrointestinal tolerability (dogs): better gastrointestinal tolerability | Gastrointestinal tolerability (rats): better gastrointestinal tolerability
